Source: patent US20250388688A1 (ETHYREAL BIO, published 2025)
Values belong to the molecule of their own block, whether it stands above or below them.

Tests used:
[1] = molecular target: T1, soluble TSHR protein (ELISA coat) (human, UniProt P16473 22-260, limits assumed); experiment: ELISA, plate coated with soluble TSHR, antibody at 100 nM, anti-human IgG Fc-HRP (blank 0.052)
[2] = molecular target: T1, soluble TSHR protein (ELISA coat); experiment: ELISA, plate coated with soluble TSHR, antibody at 300 nM, anti-human IgG Fc-HRP (blank 0.055)
[3] = molecular target: T1, soluble TSHR protein (ELISA coat); experiment: ELISA, plate coated with soluble TSHR, antibody at 33.3 nM, anti-human IgG Fc-HRP (blank 0.051)
[4] = molecular target: T1, soluble TSHR protein (ELISA coat); experiment: ELISA, plate coated with soluble TSHR, antibody at 100 nM, anti-human IgG Fc-HRP;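 also: binding of antibody variants to soluble TSHR coated at 2 µg/ml, with colour developed using TMB substrate and stopped with H2SO4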
Method: (§1) Select TSHR antibody variants were tested for their ability to bind TSHR in an ELISA. Briefly, soluble TSHR protein was coated onto a plate at 2 μg/ml in phosphate buffered saline (PBS). The plate was washed with PBS and blocked with 4% skim milk in PBS.
(§2) Following wash steps with 1×PBS-Tween 0.05%, bound human IgG was detected with peroxidase conjugated goat anti-human IgG (Fc specific)-HRP at 1:5000 dilution and the ELISA was developed with TMB reagent followed by H2SO4.

[5] = molecular target: T1, soluble TSHR protein (ELISA coat); experiment: ELISA, plate coated with soluble TSHR, antibody at 300 nM, anti-human IgG Fc-HRP;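 also: TSHR coated at 2 µg/ml, bound antibody revealed by goat anti-human IgG Fc HRP, color developed with TMB and stopped with H2SO4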
Method: as §1, §2

[6] = molecular target: T1, soluble TSHR protein (ELISA coat); experiment: ELISA, plate coated with soluble TSHR, antibody at 33.3 nM, anti-human IgG Fc-HRP;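 also: binding of antibody variants to plate-bound soluble TSHR (coated at 2 µg/ml), with bound human IgG detected by HRP conjugate and colour developed using TMB substrate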
Method: as §1, §2

[7] = molecular target: T2, Soluble TSHR (22-260) protein (human, UniProt P16473 22-260); experiment: SPR (Biacore T200, 25 C), antibody captured on anti-human Fc, soluble TSHR (22-260) as analyte, 1:1 fit;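 also: antibodies captured at 0.1 ug/mL on a CM5 sensor chip bearing anti-human Fc, with HBS-EP+ running buffer at pH 7.4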
T2 construct: range 22-260
Method: Measurements were taken on a Biacore T200 at 25 C using a CM5 chip coated with anti-human Fc. Test antibodies were captured at 0.1 ug/mL in HBS-EP+ (10 mM HEPES pH7.4, 150 mM NaCl, 3 mM EDTA, 0.05% Tween 20) assay buffer. […] A 1:1 binding kinetics fit was used to calculate kinetic parameters.

Molecule: human IgG1 isotype control antibody
ELISA (OD 450) at 100 nM [1]: 0.057 OD 450 | ELISA (OD 450) at 300 nM [2]: 0.055 OD 450 | ELISA (OD 450) at 33.3 nM [3]: 0.063 OD 450

B1: TSHB-15 (antibody, V domains shown)
VH: EVQLVQSGAEVKKPGQSLKISCKASGYSLTDNWIGWVRQKPGKGLEWMGIIYPGDSDTRYSPSFQGQVTISADKSINTAYLQWSSLKASDTAIYYCVGLDWNYNPLRYWGPGTLVTVSS
VL: QSVLTQPPSVSAAPGQKVTISCSGSSSDIGSNYVSWYQQLPGTAPKLLIYDNNKRPSGIPDRFSGSKSGTSATLGITGLQTGDEADYYCGTWDSRFGIAVFGGGTQLTVL
ELISA (OD 450) at 100 nM [4]: 0.517 OD 450 | ELISA (OD 450) at 300 nM [5]: 0.569 OD 450 | ELISA (OD 450) at 33.3 nM [6]: 0.443 OD 450 | Kd [7]: 3.08 nM | koff [7]: 0.000372 s⁻¹ | kon [7]: 121000 M⁻¹ s⁻¹

B3: TSHB-17 (antibody, V domains shown)
VH: EVQLVQSGAEVKKPGQSLKISCKASGYSLTDNWIGWVRQKPGKGLEWMGIIYPGDSDTRYSPSFQGQVTISADKSINTAYLQWSSLKASDTAIYYCVGLDWNYNPLRYWGPGTLVTVSS
VL: QSVLTQPPSVSAAPGQKVTISCSGSSSDIGSLYVSWYQQLPGTAPKLLIYDNNKRPSGIPDRFSGSKSGTSATLGITGLQTGDEADYYCGTWDSRLGIAVFGGGTQLTVL
ELISA (OD 450) at 100 nM [4]: 0.402 OD 450 | ELISA (OD 450) at 300 nM [5]: 0.475 OD 450 | ELISA (OD 450) at 33.3 nM [6]: 0.357 OD 450 | Kd [7]: 8.25 nM | koff [7]: 0.000407 s⁻¹ | kon [7]: 49400 M⁻¹ s⁻¹

B4: TSHB-18 (antibody, V domains shown)
VH: EVQLVQSGAEVKKPGQSLKISCKASGYSLTDNWIGWVRQKPGKGLEWMGIIYPGDSDTRYSPSFQGQVTISADKSINTAYLQWSSLKASDTAIYYCVGLDWNYNPLRYWGPGTLVTVSS
VL: QSVLTQPPSVSAAPGQKVTISCSGSSTDIGSNYVSWYQQLPGTAPKLLIYDNNKRPSGIPDRFSGSKSGTSATLGITGLQTGDEADYYCGTWDSRLGIAVFGGGTQLTVL
ELISA (OD 450) at 100 nM [4]: 0.495 OD 450 | ELISA (OD 450) at 300 nM [5]: 0.55 OD 450 | ELISA (OD 450) at 33.3 nM [6]: 0.42 OD 450 | Kd [7]: 2.94 nM | koff [7]: 0.000368 s⁻¹ | kon [7]: 125000 M⁻¹ s⁻¹

B5: TSHB-19 (antibody, V domains shown)
VH: EVQLVQSGAEVKKPGQSLKISCKASGYSLTDNWIGWVRQKPGKGLEWMGIIYPGDSDTRYSPSFQGQVTISADKSINTAYLQWSSLKASDTAIYYCVGLDWNYNPLRYWGPGTLVTVSS
VL: QSVLTQPPSVSAAPGQKVTISCSGSSSDIGSNWVSWYQQLPGTAPKLLIYDNNKRPSGIPDRFSGSKSGTSATLGITGLQTGDEADYYCGTWDSRLGIAVFGGGTQLTVL
ELISA (OD 450) at 100 nM [4]: 0.47 OD 450 | ELISA (OD 450) at 300 nM [5]: 0.547 OD 450 | ELISA (OD 450) at 33.3 nM [6]: 0.405 OD 450 | Kd [7]: 3.12 nM | koff [7]: 0.000369 s⁻¹ | kon [7]: 118000 M⁻¹ s⁻¹

B7: TSHB-21 (antibody, V domains shown)
VH: EVQLVQSGAEVKKPGQSLKISCKASGYSLTDNWIGWVRQKPGKGLEWMGIIYPGDSDTRYSPSFQGQVTISADKSINTAYLQWSSLKASDTAIYYCVGLDWNYNPLRYWGPGTLVTVSS
VL: QSVLTQPPSVSAAPGQKVTISCSGSSSDIGSNYVSWYQQLPGTAPKLLIYDNNKRPSGIPDRFSGSKSGTSATLGITGLQTGDEADYYCATWDSRLGIAVFGGGTQLTVL
ELISA (OD 450) at 100 nM [4]: 0.473 OD 450 | ELISA (OD 450) at 300 nM [5]: 0.552 OD 450 | ELISA (OD 450) at 33.3 nM [6]: 0.395 OD 450 | Kd [7]: 3.1 nM | koff [7]: 0.000357 s⁻¹ | kon [7]: 115000 M⁻¹ s⁻¹

The remaining lines, values ahead:

ELISA (OD 450) at 100 nM [4]: 0.487 OD 450 | ELISA (OD 450) at 300 nM [5]: 0.566 OD 450 | ELISA (OD 450) at 33.3 nM [6]: 0.443 OD 450 | Kd [7]: 2.7 nM | koff [7]: 0.000385 s⁻¹ | kon [7]: 142000 M⁻¹ s⁻¹
B2: TSHB-16 (antibody, V domains shown)
VH: EVQLVQSGAEVKKPGQSLKISCKASGYSLTDNWIGWVRQKPGKGLEWMGIIYPGDSDTRYSPSFQGQVTISADKSINTAYLQWSSLKASDTAIYYCVGLDWNYNPLRYWGPGTLVTVSS
VL: QSVLTQPPSVSAAPGQKVTISCSGSSSDIGANYVSWYQQLPGTAPKLLIYDNNKRPSGIPDRFSGSKSGTSATLGITGLQTGDEADYYCGTWDSRLGIAVFGGGTQLTVL

ELISA (OD 450) at 100 nM [4]: 0.465 OD 450 | ELISA (OD 450) at 300 nM [5]: 0.54 OD 450 | ELISA (OD 450) at 33.3 nM [6]: 0.411 OD 450 | Kd [7]: 2.77 nM | koff [7]: 0.000301 s⁻¹ | kon [7]: 109000 M⁻¹ s⁻¹
B6: TSHB-20 (antibody, V domains shown)
VH: EVQLVQSGAEVKKPGQSLKISCKASGYSLTDNWIGWVRQKPGKGLEWMGIIYPGDSDTRYSPSFQGQVTISADKSINTAYLQWSSLKASDTAIYYCVGLDWNYNPLRYWGPGTLVTVSS
VL: QSVLTQPPSVSAAPGQKVTISCSGSSSNIGSNYVSWYQQLPGTAPKLLIYDNNKRPSGIPDRFSGSKSGTSATLGITGLQTGDEADYYCGTWDSRLGIAVFGGGTQLTVL

ELISA (OD 450) at 100 nM [4]: 0.466 OD 450 | ELISA (OD 450) at 300 nM [5]: 0.538 OD 450 | ELISA (OD 450) at 33.3 nM [6]: 0.512 OD 450 | Kd [7]: 2.45 nM | koff [7]: 0.000344 s⁻¹ | kon [7]: 141000 M⁻¹ s⁻¹
B8: TSHB-23 (antibody, V domains shown)
VH: EVQLVQSGAEVKKPGESLKISCKASGYSLTDNWIGWVRQKPGKGLEWMGIIYPGDSDTRYSPSFQGQVTISADKSISTAYLQWSSLKASDTAIYYCVGLDWNYNPLRYWGQGTLVTVSS
VL: QSVLTQPPSVSAAPGQKVTISCSGSSSDIGSNYVSWYQQLPGTAPKLLIYDNNKRPSGIPDRFSGSKSGTSATLGITGLQTGDEADYYCGTWDSRLGIAVFGGGTQLTVL

ELISA (OD 450) at 100 nM [4]: 0.49 OD 450 | ELISA (OD 450) at 300 nM [5]: 0.54 OD 450 | ELISA (OD 450) at 33.3 nM [6]: 0.425 OD 450 | Kd [7]: 2.7 nM | koff [7]: 0.000348 s⁻¹ | kon [7]: 129000 M⁻¹ s⁻¹
B9: TSHB-24 (antibody, V domains shown)
VH: EVQLVQSGAEVKKPGESLKISCKASGYSLTDNWIGWVRQKPGKGLEWMGIIYPGDSDTRYSPSFQGQVTISADKSISTAYLQWSSLKASDTAIYYCVGLDWNYNPLRYWGQGTLVTVSS
VL: QSVLTQPPSVSGAPGQRVTISCSGSSSDIGSNYVSWYQQLPGTAPKLLIYDNNKRPSGVPDRFSGSKSGTSASLAITGLQAEDEADYYCGTWDSRLGIAVFGGGTKLTVL
